For three molecules, dwell time results are on record in paper doi:10.1101/2021.06.30.450611.

To fix the notation:
B1: full-length recombinant human KIF1C-GFP (wildtype) (natural protein)
chain: MAGASVKVAVRVRPFNARETSQDAKCVVSMQGNTTSIINPKQSKDAPKSFTFDYSYWSHTSTEDPQFASQQQVYRDIGEEMLLHAFEGYNVCIFAYGQTGAGKSYTMMGRQEPGQQGIVPQLCEDLFSRVSENQSAQLSYSVEVSYMEIYCERVRDLLNPKSRGSLRVREHPILGPYVQDLSKLAVTSYADIADLMDCGNKARTVAATNMNETSSRSHAVFTIVFTQRCHDQLTGLDSEKVSKISLVDLAGSERADSSGARGMRLKEGANINKSLTTLGKVISALADMQSKKRKSDFIPYRDSVLTWLLKENLGGNSRTAMIAALSPADINYEETLSTLRYADRTKQIRCNAIINEDPNARLIRELQEEVARLRELLMAQGLSASALEGLKTEEGSVRGALPAVSSPPAPVSPSSPTTHNGELEPSFSPNTESQIGPEEAMERLQETEKIIAELNETWEEKLRKTEALRMEREALLAEMGVAVREDGGTVGVFSPKKTPHLVNLNEDPLMSECLLYHIKDGVTRVGQVDMDIKLTGQFIREQHCLFRSIPQPDGEVVVTLEPCEGAETYVNGKLVTEPLVLKSGNRIVMGKNHVFRFNHPEQARLERERGVPPPPGPPSEPVDWNFAQKELLEQQGIDIKLEMEKRLQDLENQYRKEKEEADLLLEQQRLYADSDSGDDSDKRSCEESWRLISSLREQLPPTTVQTIVKRCGLPSSGKRRAPRRVYQIPQRRRLQGKDPRWATMADLKMQAVKEICYEVALADFRHGRAEIEALAALKMRELCRTYGKPDGPGDAWRAVARDVWDTVGEEEGGGAGSGGGSEEGARGAEVEDLRAHIDKLTGILQEVKLQNSSKDRELQALRDRMLRMERVIPLAQDHEDENEEGGEVPWAPPEGSEAAEEAAPSDRMPSARPPSPPLSSWERVSRLMEEDPAFRRGRLRWLKQEQLRLQGLQGSGGRGGGLRRPPARFVPPHDCKLRFPFKSNPQHRESWPGMGSGEAPTPLQPPEEVTPHPATPARRPPSPRRSHHPRRNSLDGGGRSRGAGSAQPEPQHFQPKKHNSYPQPPQPYPAQRPPGPRYPPYTTPPRMRRQRSAPDLKESGAAV
B2: full-length recombinant human KIF1C(R169W)-GFP (natural protein)
chain: B1 chain with R169W
B3: full-length recombinant human KIF1C(P176L)-GFP (natural protein)
chain: B1 chain with P176L

Positions count from the first letter of the chain named. Numbers in names are those of the source.

In the experiment the target is Taxol-stabilised microtubules assembled from pig tubulin (single molecule motility assay) (pig). Nature of the experiment: single molecule TIRF motility assay.
B1 came in with a dwell time of 36.3 s. To B2 belongs 16 s; to B3, 25.8 s.
